Patent publication US20140065163A1 (MERCK SERONO S A, published 2014)
Where two headings read alike, the source gives them in different places.

T1: macaca GM-CSF (Macaca mulatta (identical in Macaca …, UniProt Q0MUT8 18-144 (Chlorocebus aethiops entry), limits assumed))
T1 construct: also called macaca ortholog; MSB0002734 H-2
T1 chain: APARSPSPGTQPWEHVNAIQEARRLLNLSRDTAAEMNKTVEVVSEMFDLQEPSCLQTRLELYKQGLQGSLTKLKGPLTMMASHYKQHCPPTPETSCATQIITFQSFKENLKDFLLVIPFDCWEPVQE

B1: anti-GM-CSF 4K21 hIgG1K antibody (MSB0010259), recombinant chimeric 4K21 (antibody, V domains shown)
VH: EVQLVESGGGLVKSGGSLKLSCAASGFAFSAYDMSWVRQTPEKRLELVAYISSGGSSFYYPDTVKGRFTISRDNAKNTLYLQMSSLKSEDTAMYYCTRHLGFDYWGQGTTLTVSS
VL: DVVMTQTPLSLPVSLGDQASISCRSSQSLVNSNGNTYLHWFLQKPGQSPKLLIYKVSNRFSGVPDRFSGSGSGTDFTLKISRVEAEDLGVYFCSQSTHVPPTFGGGTKLEIK
notes: Murine variable domains fused to human constant IgG1 heavy chain and kappa light chain domains
B2: humanized parental anti-GM-CSF 4K21 VH3-07.1AL+VK2-A3.2 hIgG1K antibody (MSB0010439) (antibody, V domains shown)
VH: EVQLVESGGGLVQPGGSLRLSCAASGFAFSAYDMSWVRQAPGKRLELVAYISSGGSSFYYPDTVKGRFTISRDNAKNSLYLQMNSLRAEDTAVYYCTRHLGFDYWGQGTLVTVSS
VL: DIVMTQSPLSLPVTPGEPASISCRSSQSLVNSNGNTYLHWYLQKPGQSPQLLIYKVSNRFSGVPDRFSGSGSGTDFTLKISRVEAEDVGVYYCSQSTHVPPTFGQGTKVEIK
notes: Human IgG1 kappa; also called humanized parental 4K21 hVH hVL; parental 4K21
B3: MSB0010601 4K21 (4K21 hVH S55K-T62S hVL N28I-H34S-N53R-H93Y) (antibody, V domains shown)
VH: EVQLVESGGGLVQPGGSLRLSCAASGFAFSAYDMSWVRQAPGKRLELVAYISSGGKSFYYPDSVKGRFTISRDNAKNSLYLQMNSLRAEDTAVYYCTRHLGFDYWGQGTLVTVSS
VL: DIVMTQSPLSLPVTPGEPASISCRSSQSLVNSIGNTYLSWYLQKPGQSPQLLIYKVSRRFSGVPDRFSGSGSGTDFTLKISRVEAEDVGVYYCSQSTYVPPTFGQGTKVEIK
notes: IgG; also called optimized 4K21 antibody

How the values were obtained:
human GM-CSF I117 [1] = target: T2, human GM-CSF I117 (human, UniProt P04141 18-144); assay: KinExA, affinity in solution
T2 construct: also called hGM-CSF (I117); hGM-CSF-I117
Method: (§1) The 4K21 and reference antibodies were incubated at concentration below the expected Kd with serial dilutions of human GM-CSF I117 or T117, or macaca GM-CSF up to equilibrium. The remaining free antibody was measured in a Kinetic exclusion assay with the KinExA® instrument. Kd was calculated by fitting the curve of the signal obtained versus the GM-CSF concentrations. The average of two experiments using different IgG concentrations was calculated.

human GM-CSF T117 [2] = target: T3, human GM-CSF T117 (human, UniProt P04141 18-144); assay: KinExA, affinity in solution
T3 construct: also called hGM-CSF (T117); hGM-CSF-T117
Method: as §1

macaca GM-CSF [3] = target: T1, macaca GM-CSF; assay: KinExA, affinity in solution
Method: as §1

human GM-CSF I117 [4] = target: T2, human GM-CSF I117; assay: cell-based or functional assay
Target sequence in this assay (P04141 18-144 limits assumed): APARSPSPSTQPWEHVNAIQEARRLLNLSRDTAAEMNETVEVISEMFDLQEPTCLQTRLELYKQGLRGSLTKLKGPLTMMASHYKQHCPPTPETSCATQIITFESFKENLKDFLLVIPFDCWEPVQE

human GM-CSF T117 [5] = target: T3, human GM-CSF T117; assay: cell-based or functional assay
Target sequence in this assay (P04141 18-144 I117T limits assumed): as the sequence (P04141 18-144 limits assumed) above, with I100T counted along it

macaca GM-CSF [6] = target: T1, macaca GM-CSF; assay: cell-based or functional assay
human GM-CSF I117 [7] = target: T2, human GM-CSF I117; assay: cell-based or functional assay; remark: listed apart in the source
human GM-CSF T117 [8] = target: T3, human GM-CSF T117; assay: cell-based or functional assay; remark: listed apart in the source
macaca GM-CSF [9] = target: T1, macaca GM-CSF; assay: cell-based or functional assay
macaca GM-CSF [10] = target: T1, macaca GM-CSF; assay: cell-based or functional assay
human GM-CSF I117 [11] = target: T2, human GM-CSF I117; assay: cell-based or functional assay; remark: listed apart in the source
human GM-CSF T117 [12] = target: T3, human GM-CSF T117; assay: cell-based or functional assay; remark: listed apart in the source
human GM-CSF I117 [13] = target: T2, human GM-CSF I117; assay: TF-1 proliferation assay and KinExA
human GM-CSF I117 [14] = target: T2, human GM-CSF I117; assay: cell-based or functional assay; remark: listed apart in the source
human GM-CSF T117 [15] = target: T3, human GM-CSF T117; assay: cell-based or functional assay; remark: listed apart in the source
macaca GM-CSF [16] = target: T1, macaca GM-CSF; assay: cell-based or functional assay
human GM-CSF A117 mutant = target: T4, human GM-CSF A117 mutant (human, UniProt P04141 18-144); assay: competition ELISA: antibody on coated wild-type human GM-CSF, competitor soluble human GM-CSF A117; single condition, competitor concentration not shown
T4 construct: also called hGM-CSF A117; A117 protein

Binder	Kd (human GM-CSF I117 [1]) [nM]	Kd (human GM-CSF T117 [2]) [nM]	Kd (macaca GM-CSF [3]) [nM]	Fold improvement of 4K21 H93Y alone on I117 (IC50, TF-1 proliferation) (human GM-CSF I117 [4]) [fold]	Fold improvement of humanized parental 4K21 on I117 (IC50, TF-1 proliferation) (human GM-CSF I117 [4]) [fold]	IC50, inhibition of GM-CSF induced TF-1 proliferation (32 pM GM-CSF) (human GM-CSF I117 [4]) [pM]	Fold human T117/I117 (IC50, TF-1 proliferation) (human GM-CSF T117 [5]) [fold]	Fold improvement of 4K21 H93Y alone on T117 (IC50, TF-1 proliferation) (human GM-CSF T117 [5]) [fold]	Fold improvement of humanized parental 4K21 on T117 (IC50, TF-1 proliferation) (human GM-CSF T117 [5]) [fold]	IC50, inhibition of GM-CSF induced TF-1 proliferation (32 pM GM-CSF) (human GM-CSF T117 [5]) [pM]	Fold improvement of 4K21 H93Y alone on macaca (IC50, TF-1 proliferation) (macaca GM-CSF [6]) [fold]	Fold improvement of humanized parental 4K21 on macaca (IC50, TF-1 proliferation) (macaca GM-CSF [6]) [fold]	Fold macaca/human I117 (IC50, TF-1 proliferation) (macaca GM-CSF [6]) [fold]	IC50, inhibition of GM-CSF induced TF-1 proliferation (32 pM GM-CSF) (macaca GM-CSF [6]) [pM]	Emax (%), inhibition of CD11b upregulation on neutrophils after GM-CSF stimulation (human GM-CSF I117 [11]) [%]	IC50, inhibition of CD11b upregulation on neutrophils after GM-CSF stimulation (human GM-CSF I117 [11]) [nM]	Emax (%), inhibition of CD11b upregulation on neutrophils after GM-CSF stimulation (human GM-CSF T117 [12]) [%]	IC50, inhibition of CD11b upregulation on neutrophils after GM-CSF stimulation (human GM-CSF T117 [12]) [nM]	IC50, inhibition of GM-CSF induced IL-8 secretion in U937 cells (65 pM GM-CSF) (human GM-CSF I117 [14]) [pM]	IC50, inhibition of GM-CSF induced IL-8 secretion in U937 cells (65 pM GM-CSF) (human GM-CSF T117 [15]) [pM]	other results
B1	0.017	0.174	0.104	0.2	0.9	130	10.8	0.1	1	1410	0.1	0.7	9.3	1220							
B2	0.021	0.164	0.063	0.2	1	121	11.6	0.1	1	1400	0.1	1	6.6	793	65	3.06	68	31.6	170	930	IC50, inhibition of GM-CSF induced TF-1 proliferation (32 pM GM-CSF) (human GM-CSF I117 [7]): 98 pM; Fold human T117/I117 (IC50, TF-1 proliferation) (human GM-CSF T117 [8]): 9.7 fold; IC50, inhibition of GM-CSF induced TF-1 proliferation (32 pM GM-CSF) (human GM-CSF T117 [8]): 947 pM; Fold macaca/human I117 (IC50, TF-1 proliferation) (macaca GM-CSF [9]): 5.7 fold; IC50, inhibition of GM-CSF induced TF-1 proliferation (32 pM GM-CSF) (macaca GM-CSF [9]): 557 pM; neutralizing the orthologs of cynomolgus and rhesus monkeys (TF-1 proliferation assay) (macaca GM-CSF [10]): < 10 fold; fold preference for GM-CSF I117 versus T117 (human GM-CSF I117 [13]): > 10 fold; IC50, inhibition of GM-CSF induced IL-8 secretion in U937 cells (65 pM GM-CSF) (macaca GM-CSF [16]): 1120 pM
B3	0.006	0.005	0.012	1.3	5.3	23	0.9	8.3	68	21	1.8	15	2.3	53	79	1.41	97	2.03	334	263	binding result (human GM-CSF A117 mutant): binds; IC50, inhibition of GM-CSF induced IL-8 secretion in U937 cells (65 pM GM-CSF) (macaca GM-CSF [16]): 340 pM
